Experimental findings from patent US20140087401 are described below.

For this series, the system named is purified spectrin.

For calpain (added in the in-tube reaction), the “spectrin cleavage, gel stained with Coomassie's blue” value is “Purified spectrins undergo calpain-mediated dynamic cleavage in a test tube due to ambient PAV impact”.
